Tests used:
[1] = molecular target: T1, FtsZ C-terminal tail peptide C-terminal tail peptide (Escherichia coli, UniProt P0A9A6); test: ITC
T1 chain: KEPDYLDIPAFLRKQAD

[2] = molecular target: the molecule itself; test: analytical ultracentrifugation (sedimentation velocity)

Kd [1]: 32 µM
B1: ZapC (protein)
chain: not shown
Kd [2]: ~30 µM

From publication PMC4686002 (2015)
